Data on 4 molecules can be found in US20040022767A1 (Genentech, published 2004).

Test [1] deals with T1, soluble rat elk/Fc fusion protein (rat; human, UniProt P09759 18-540; P01857 99-330 = IgG part, limits assumed).
T1 construct: extracellular domain;domain: Fc region (hinge to native C-terminus)
In words: indirect Scatchard analysis; elk/Fc titrated on transfected CV-1/EBNA-1 cells, detected with 125I-mouse anti-human IgG. The source says: CV1-EBNA-1 cells (described in Example 3) in 12-well plates (2.5×10⁵ cells/well) were transfected with an expression vector containing the clone E7 elk-L cDNA. The mammalian expression vector, designated pDC410, is similar to pDC406 (McMahan et al., EMBO J. 10:2821, 1991). In pDC410, the EBV origin of replication of pDC406 is replaced by DNA encoding the SV40 large T antigen (driven from an SV40 promoter). The pDC410 multiple cloning site (mcs) differs from that of pDC406 in that it contains additional restriction sites and three stop codons (one in each reading frome). A T7 polymerase promoter downstream of the mcs facilitates sequencing of DNA inserted into the mcs. The transfected cells were cultured for two days to permit expression of the elk-L protein, then washed with BM-NFDMv (the binding medium described in Example 2, also containing 50 mg/ml nonfat dry milk), and incubated with various concentrations of the elk/Fc fusion protein prepared in Example 1, for 1 hour at 37° C. Subsequently, cells were washed and incubated with a constant saturating concentration of the ¹²⁵I-labeled mouse anti-human IgG antibody prepared in Example 2 (40 ng/ml) in binding medium with gentle agitation for 1 hour at 37° C. Cells then were harvested by trypsinization. […]

Test [2] addresses T2, soluble hek/Fc fusion protein (human, UniProt P29320 21-541; P01857 99-330 = IgG part, limits assumed).
T2 construct: extracellular domain;domain: Fc region (hinge to native C-terminus); The extracellular domain and the dimeric state are inferred from that analogy
As to the kind of experiment: indirect Scatchard analysis, biphasic, first component; hek/Fc titrated on transfected CV-1/EBNA-1 cells, detected with 125I-mouse anti-human IgG.

Test [3] has as its target T2, soluble hek/Fc fusion protein. In words: indirect Scatchard analysis, biphasic, second component; hek/Fc titrated on transfected CV-1/EBNA-1 cells, detected with 125I-mouse anti-human IgG.
The target in test [4] is T1, soluble rat elk/Fc fusion protein. As to the kind of experiment: indirect Scatchard analysis, biphasic, first component; elk/Fc titrated on transfected CV-1/EBNA-1 cells, detected with 125I-mouse anti-human IgG.
Test [5] concerns the target T2, soluble hek/Fc fusion protein. As to the kind of experiment: indirect Scatchard analysis; hek/Fc titrated on transfected CV-1/EBNA-1 cells, detected with 125I-mouse anti-human IgG.
The target in test [6] is T1, soluble rat elk/Fc fusion protein. In words: indirect Scatchard analysis, biphasic, second component; elk/Fc titrated on transfected CV-1/EBNA-1 cells, detected with 125I-mouse anti-human IgG.

T2 sequence (P29320 other isoform, or with tags, fused parts or gaps limits assumed): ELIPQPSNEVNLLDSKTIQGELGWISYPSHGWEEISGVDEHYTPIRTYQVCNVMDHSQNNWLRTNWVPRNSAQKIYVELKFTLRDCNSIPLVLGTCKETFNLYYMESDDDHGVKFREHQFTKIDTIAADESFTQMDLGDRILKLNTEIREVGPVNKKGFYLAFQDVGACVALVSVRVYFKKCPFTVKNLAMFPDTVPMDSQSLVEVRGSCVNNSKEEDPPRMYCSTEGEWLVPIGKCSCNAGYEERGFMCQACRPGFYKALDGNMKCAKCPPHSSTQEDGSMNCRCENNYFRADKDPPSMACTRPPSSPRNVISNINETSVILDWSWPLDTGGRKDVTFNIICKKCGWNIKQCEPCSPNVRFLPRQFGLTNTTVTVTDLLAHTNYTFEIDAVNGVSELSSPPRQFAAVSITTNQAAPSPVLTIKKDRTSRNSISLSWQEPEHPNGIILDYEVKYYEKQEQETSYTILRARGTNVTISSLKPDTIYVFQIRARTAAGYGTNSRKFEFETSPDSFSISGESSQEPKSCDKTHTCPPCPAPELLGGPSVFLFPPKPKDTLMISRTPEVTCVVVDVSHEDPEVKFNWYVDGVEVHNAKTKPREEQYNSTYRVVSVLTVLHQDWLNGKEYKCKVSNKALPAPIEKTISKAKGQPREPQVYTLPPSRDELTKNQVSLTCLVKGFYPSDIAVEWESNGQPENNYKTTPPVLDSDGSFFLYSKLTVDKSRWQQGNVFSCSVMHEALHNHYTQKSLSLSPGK
T1 sequence (P09759 other isoform, or with tags, fused parts or gaps limits assumed): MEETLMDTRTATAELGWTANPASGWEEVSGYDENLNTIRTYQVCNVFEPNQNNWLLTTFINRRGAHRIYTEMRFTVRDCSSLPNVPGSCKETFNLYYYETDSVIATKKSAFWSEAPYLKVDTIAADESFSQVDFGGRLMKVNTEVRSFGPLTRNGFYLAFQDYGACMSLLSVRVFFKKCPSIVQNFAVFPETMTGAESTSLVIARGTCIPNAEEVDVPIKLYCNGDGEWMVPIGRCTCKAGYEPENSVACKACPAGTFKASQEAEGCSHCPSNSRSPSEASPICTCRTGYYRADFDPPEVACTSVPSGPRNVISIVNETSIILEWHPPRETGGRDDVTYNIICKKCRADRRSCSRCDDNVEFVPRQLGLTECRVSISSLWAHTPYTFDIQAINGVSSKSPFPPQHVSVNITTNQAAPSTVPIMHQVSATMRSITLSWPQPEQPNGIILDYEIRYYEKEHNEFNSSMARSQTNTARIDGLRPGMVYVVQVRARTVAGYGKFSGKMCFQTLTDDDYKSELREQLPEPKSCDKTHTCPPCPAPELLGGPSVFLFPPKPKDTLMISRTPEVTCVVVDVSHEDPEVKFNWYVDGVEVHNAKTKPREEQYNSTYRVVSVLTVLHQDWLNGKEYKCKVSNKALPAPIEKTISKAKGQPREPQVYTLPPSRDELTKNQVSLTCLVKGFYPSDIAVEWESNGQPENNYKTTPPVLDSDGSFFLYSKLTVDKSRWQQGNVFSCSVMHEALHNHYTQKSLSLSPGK

B1: human elk ligand (elk-L), clone E7, expressed on transfected CV-1/EBNA-1 cells (ligand)
chain: ATPLAKNLEPVSWSSLNPKFLSGKGLVIYPKIGDKLDIICPRAEAGRPYEYYKLYLVRPEQAAACSTVLDPNVLVTCNRPEQEIRFTIKFQEFSPNYMGLEFKKHHDYYITSTSNGSLEGLENREGGVCRTRTMKIIMKVGQDPNAVTPEQLTTSRPSKEADNTVKMATQAPGSRGSLGDSDGKHETVNQEEKSGPGASGGSSGDPDGFFNSKVALFAAVGAGCVIFLLIIIFLTVLLLKLRKRHRKHTQQRAAALSLSTLASPKGGSGTAGTEPSDIIIPLRTTENNYCPHYEKVSGDYGHPVYIVQEMPPQSPANIYYKV
With B1, the Ka in test [1] turned out to be 1.08e+09 M⁻¹; in test [2] it was 2.3e+07 M⁻¹; in test [3] it was 2.9e+06 M⁻¹.

B2: hek-L protein designated C6, expressed on transfected CV-1/EBNA-1 cells (ligand, UniProt P52798 26-170, looked up)
chain: LRHVVYWNSSNPRLLRGDAVVELGLNDYLDIVCPHYEGPGPPEGPETFALYMVDWPGYESCQAEGPRAYKRWVCSLPFGHVQFSEKIQRFTPFSLGFEFLPGETYYYISVPTPESSGQCLRLQVSVCCKERKSESAHPVGSPGES
notes: whole, on cells; also called hek-L C6; hek ligand C6
Take B2: the Ka in test [4] turned out to be 1.3e+08 M⁻¹; in test [5] it was 2e+08 M⁻¹; in test [6], 5.4e+07 M⁻¹.

B3: hek-L protein designated A2, expressed on transfected CV-1/EBNA-1 cells (ligand, UniProt P52797 23-214, looked up)
chain: QGPGGALGNRHAVYWNSSNQHLRREGYTVQVNVNDYLDIYCPHYNSSGVGPGAGPGPGGGAEQYVLYMVSRNGYRTCNASQGFKRWECNRPHAPHSPIKFSEKFQRYSAFSLGYEFHAGHEYYYISTPTHNLHWKCLRMKVFVCCASTSHSGEKPVPTLPQFTMGPNVKINVLEDFEGENPQVPKLEKSISG
notes: whole, on cells; also called hek-L A2; hek ligand A2
B3: the figures for the Ka in test [4], in test [5] and in test [6] were 2.7e+08 M⁻¹, 2e+08 M⁻¹ and 3.5e+07 M⁻¹, respectively.

B4: B61 protein expressed on transfected CV-1/EBNA-1 cells (ligand, human, UniProt P20827 19-182, looked up)
chain: DRHTVFWNSSNPKFRNEDYTIHVQLNDYVDIICPHYEDHSVADAAMEQYILYLVEHEEYQLCQPQSKDQVRWQCNRPSAKHGPEKLSEKFQRFTPFTLGKEFKEGHSYYYISKPIHQHEDRCLRLKVTVSGKITHSPQAHDNPQEKRLAADDPEVRVLHSIGHS
notes: whole, on cells
Regarding B4, the Ka in test [4] is 2.3e+08 M⁻¹; in test [5] it was 5.5e+07 M⁻¹; in test [6], 7e+07 M⁻¹.
